The source of these data is patent US5451506A, “Oncostatin M and novel compositions having anti-neoplastic activity” (Oncogen Limited Partnership, priority 1993, dated 1995).

Experiment [1] concerns A375 melanoma cells. The experiment in a line: Cell growth modulatory assay using 3H-thymidine incorporation into DNA (GIA). Type of experiment: cell-based, human. Set-up: Observed % Inhibition of 3H-TdR Incorporation: concentration or dose not given beside the values. The settings on record: A375 Cells. As to the method: (§1) The assays were performed in 96 flat well plates (Costar 3596). Human melanoma cells (A375) (3×10^3 /100 μl) or cells from another cell line of interest were at an appropriate cell density used. Cells in 100 μl growth medium were placed in each well. Three hours later, 100 μl of test sample in growth medium was added to each well. Plates were incubated at 37° C. for 3 days. Then 25 μl (0.5 μCi) of a solution of ^3 H-thymidine (specific activity 27 μCi/μg) was added to each well for the final 6 hours of incubation. The cells were then transferred to glass filter strips using a multiwell harvester (PHD Cell Harvester, Cambridge Technology, Inc.). The filters were transferred to scintillation vials. Two ml of scintillation fluid (ScientiVerse II, Fisher Scientific Co.) was added and the samples counted in a scintillation counter to quantitate ^3 H-thymidine incorporation.
On the technique in general: Uptake of a labelled nucleoside into DNA is a usual measure of proliferation.

For experiment [2], the target named is T1, Oncostatin M receptor on A375 or A549 cells (Homo sapiens, UniProt P40189+Q99650).
T1 construct: endogenous in cells; host or cells: A375 or A549 cells (intact monolayers)
T1 sequence (Q99650 28-979): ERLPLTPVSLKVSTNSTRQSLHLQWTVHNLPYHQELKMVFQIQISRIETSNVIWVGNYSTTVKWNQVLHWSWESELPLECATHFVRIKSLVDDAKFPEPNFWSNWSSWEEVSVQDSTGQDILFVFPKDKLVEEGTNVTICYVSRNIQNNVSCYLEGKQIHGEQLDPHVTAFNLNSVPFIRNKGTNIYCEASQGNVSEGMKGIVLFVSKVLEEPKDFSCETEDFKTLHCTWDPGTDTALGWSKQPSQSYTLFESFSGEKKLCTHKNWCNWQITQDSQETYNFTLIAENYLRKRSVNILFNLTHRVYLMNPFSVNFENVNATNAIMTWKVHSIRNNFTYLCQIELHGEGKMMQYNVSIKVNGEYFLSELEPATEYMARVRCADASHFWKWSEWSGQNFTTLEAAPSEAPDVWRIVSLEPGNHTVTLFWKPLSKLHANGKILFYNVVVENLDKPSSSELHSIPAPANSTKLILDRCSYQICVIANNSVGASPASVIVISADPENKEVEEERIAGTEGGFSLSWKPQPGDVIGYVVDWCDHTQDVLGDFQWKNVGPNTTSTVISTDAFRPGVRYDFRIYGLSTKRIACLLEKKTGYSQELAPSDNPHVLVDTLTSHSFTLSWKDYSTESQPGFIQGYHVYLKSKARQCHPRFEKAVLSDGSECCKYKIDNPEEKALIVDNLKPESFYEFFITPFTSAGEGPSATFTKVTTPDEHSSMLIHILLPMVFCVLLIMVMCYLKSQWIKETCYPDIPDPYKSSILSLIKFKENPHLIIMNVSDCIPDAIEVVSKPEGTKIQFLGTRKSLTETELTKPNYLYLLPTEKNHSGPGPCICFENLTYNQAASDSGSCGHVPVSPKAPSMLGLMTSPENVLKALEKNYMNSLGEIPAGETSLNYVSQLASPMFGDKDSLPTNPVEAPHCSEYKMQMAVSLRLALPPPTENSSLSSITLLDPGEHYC
T1 sequence (P40189 23-918): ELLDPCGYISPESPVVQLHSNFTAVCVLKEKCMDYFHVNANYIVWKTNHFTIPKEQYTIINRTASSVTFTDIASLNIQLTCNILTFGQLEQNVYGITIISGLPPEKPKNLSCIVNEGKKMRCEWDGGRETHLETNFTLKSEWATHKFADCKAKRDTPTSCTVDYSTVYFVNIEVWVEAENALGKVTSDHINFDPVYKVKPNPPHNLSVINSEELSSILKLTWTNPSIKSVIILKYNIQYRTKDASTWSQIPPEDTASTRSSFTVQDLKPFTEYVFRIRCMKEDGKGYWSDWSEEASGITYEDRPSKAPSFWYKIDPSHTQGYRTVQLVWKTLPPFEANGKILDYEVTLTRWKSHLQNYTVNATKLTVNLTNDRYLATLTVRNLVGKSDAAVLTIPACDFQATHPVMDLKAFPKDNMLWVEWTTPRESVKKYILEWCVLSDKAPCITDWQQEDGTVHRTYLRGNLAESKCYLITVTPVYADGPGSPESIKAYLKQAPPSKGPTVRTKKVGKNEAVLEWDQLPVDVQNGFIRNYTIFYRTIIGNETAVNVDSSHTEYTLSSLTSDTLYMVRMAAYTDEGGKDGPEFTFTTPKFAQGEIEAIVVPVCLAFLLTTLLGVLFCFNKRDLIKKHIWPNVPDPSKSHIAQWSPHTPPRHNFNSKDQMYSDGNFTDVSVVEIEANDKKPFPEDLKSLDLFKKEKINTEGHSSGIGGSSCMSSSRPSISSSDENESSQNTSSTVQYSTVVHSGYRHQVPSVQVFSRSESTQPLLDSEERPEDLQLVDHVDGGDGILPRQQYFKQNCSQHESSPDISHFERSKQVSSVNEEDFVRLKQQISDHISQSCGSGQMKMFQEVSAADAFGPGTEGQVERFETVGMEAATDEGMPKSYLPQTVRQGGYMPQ
The experiment in a line: Specificity of Oncostatin M receptor: competition for binding of 125I-Oncostatin M. The settings on record: competitor 20 μg/ml; 125I-Oncostatin M 30-50 ng/ml. The method, then: The cell line of interest was plated in 48-well plates at a density of 2×10^5 cells/well and maintained at 37° C. for 16-24 hours before initiation of the assay. Cell monolayers were then washed once with Binding buffer (Linsley et al., Biochemistry (1986) 25:2978-2986). To measure total binding, ^125 I-Oncostatin M was added at concentrations ranging from 0.5-100 ng/ml. To measure non-specific binding, unlabeled Oncostatin M was added simultaneously with the ^125 I-Oncostatin M to replicate plates at a concentration 20- to 100-fold higher than the concentration of ^125 I-Oncostatin M. Binding was allowed to proceed for 2-5 hours at 23°, then the monolayers were washed four times with Binding Buffer, cell-bound radioactivity was solubilized with 1N NaOH and was counted in a gamma counter. Specific binding was calculated by subtracting the non-specific binding from total binding. The dissociation constant (Kd) and binding capacity was determined by Scatchard analysis (Scatchard, Ann. N.Y. Acad. Sci. (1949) 51:660).
The specificity of the Oncostatin M receptor was determined by evaluating the ability of several other polypeptide growth factors to compete for binding of ^125 I-Oncostatin M (at 30-50 ng/ml) to A375 or A549 cells.

The subject of experiment [3] is MCF-7 breast tumor cells. Briefly: Inhibition of 3H-TdR incorporation, Oncostatin M and TNF-α. The settings on record: MCF-7 Cells. Type of experiment: cell-based, human. As to the method:
as §1
Inhibition of ^3 H-TdR incorporation into A375 cells and MCF-7 cells were compared using the assay described in Example 1B, above. The cells were treated with either Oncostatin M alone, TNF-α (Amgen Biologicals, human recombinant TNF-α) alone, or with a combination of Oncostatin M and TNF-α.

The test system of experiment [4] is A375 cells. Briefly: Growth inhibition assay (A375 proliferation; synergy tests). The settings on record: growth inhibition assays. Type of experiment: cell-based, human. The method, then:
A375 melanoma cells (4×10^3 cells/50 μl), Mv1Lu mink lung epithelial cells (3.5×10^3 cells/50 μl), or other cell line of interest at an appropriate cell density were subcultured for four hours on flat-bottomed 96-well tissue culture plates (Costar 3596, Cambridge, Mass.) in growth medium comprising Dulbecco's modified Eagle's medium (DMEM), supplemented with 10% heat-in-activated fetal bovine serum, and P/S. Test samples to be assayed for growth inhibition were diluted in growth medium and assayed in triplicate with 50 μl of the diluted sample added to each well. The cells were incubated for 72 hours at 37° C.
The growth inhibitory activity of highly purified TGF-β1, recombinant gamma-interferon (rIFN-γ), and Oncostatin M on A375 cells was determined, and possible synergy between TGF-β1 and Oncostatin M, TGF-β1 and rIFN-γ, and Oncostatin M and rIFN-γ in inhibiting A375 proliferation was tested. […] is expressed in units of Mv1Lu growth inhibitory activity, rIFN-γ in units of anti-viral activity and Oncostatin M in units of A375 growth inhibitory activity. Concentrations of TGF-β1 (1-30 U/ml) and Oncostatin M (0.5-10 U/ml) were chosen which caused either no or only minimal growth inhibition when tested individually.

Experiment [5] has as its system Mouse L929 cells. Briefly: Effect on mouse L929 cells. Type of experiment: cell-based. The conditions noted are these: up to 1000 GIA units/ml. The method, then: (§2) The ability of PBL-derived Oncostatin M to affect replication of a variety of cells was also investigated. Mouse L929 cells were insenstive to PBL-derived Oncostatin M using up to 1000 GIA units/ml. Growth of human fibroblasts, WI26, was stimulated by treatment with 1000 GIA units/ml. Normal human T-lymphocyte proliferation at 72 hours post mitogenesis was not affected by up to 500 GIA units/ml.

Experiment [6] relates to Normal human T-lymphocyte. Briefly: Normal human T-lymphocyte proliferation post mitogenesis. The conditions noted are these: 72 hours post mitogenesis, up to 500 GIA units/ml. Type of experiment: cell-based. The method, then:
as §2

Experiment [7] has as its system WI26 fibroblasts. The experiment in a line: Cell growth modulatory assay using 3H-thymidine incorporation into DNA (GIA). Type of experiment: cell-based, human. The settings on record: 1000 GIA units/ml. As to the method: as §1
Human tumor cells (A375 melanoma cells, A549 lung cancer cells, HBT10 neuroblastoma cells, and SK-MEL28 melanoma cells) were seeded at 3×10^3 cells/well and normal fibroblasts (WI26 cells and WI38 cells) at 1.5×10^3 cells/well in 96-well plates. Various concentrations of purified Oncostatin M, obtained from the fraction from the C18^3 column with peak antiproliferative activity against A375 cells were used. The assay was performed as described in Example 1B above.

On to TNF-α, for which the entries for the “Observed % Inhibition of 3H-TdR Incorporation” value in experiment [1] and in experiment [3] were 7% and 30%, respectively. Besides, in experiment [2], the “Inhibitory activity towards binding of 125I-Oncostatin M” value is “None of these showed significant inhibitory activity”.

B1: ^125 I-Oncostatin M: Oncostatin M purified from TPA-treated U937 cells and radiolabeled with 125I by the iodogen method (protein, UniProt P13725 26-221, looked up)
Oncostatin-M: AAIGSCSKEYRVLLGQLQKQTDLMQDTSRLLDPYIRIQGLDVPKLREHCRERPGAFPSEETLRGLGRRGFLQTLNATLGCVLHRLADLEQRLPKAQDLERSGLNIEDLEKLQMARPNILGLRNNIYCMAQLLDNSDTAEPTKAGRGASQPPTPTPASDAFQRKLEGCRFLHGYHRFMHSVGRVFSKWGESPNRSRR
modifications: 125I label
notes: Oncostatin M purified from TPA-treated U937 cells and radiolabeled with 125I by the iodogen method
Turning to B1, the “Original biological activity retained after iodination” value in experiment [4] is on record as “approximately 85%”.

B2: PBL-derived Oncostatin M: Oncostatin M isolated from conditioned medium of activated human T-lymphoblasts, approximately 80% pure (protein, UniProt P13725 26-221, looked up)
Oncostatin-M: B1 Oncostatin-M
For the molecule B2, the “Replication of mouse L929 cells” value in experiment [5] is on record as “insenstive”. Further, the “Normal human T-lymphocyte proliferation” value in experiment [6] is reported as “not affected”. The “Growth of human fibroblasts WI26” value in experiment [7] is recorded as “stimulated”.
